Test results published in paper PMC4045321 (2014).

Target: the molecule itself
Test: size exclusion chromatography

B1: eIF2Bα (protein)
chain: MDDKELIEYFKSQMKEDPDMASAVAAIRTLLEFLKRDKGETIQGLRANLTSAIETLCGVDSSVAVSSGGELFLRFISLASLEYSDYSKCKKIMIERGELFLRRISLSRNKIADLCHTFIKDGATILTHAYSRVVLRVLEAAVAAKKRFSVYVTESQPDLSGKKMAKALCHLNVPVTVVLDAAVGYIMEKADLVIVGAEGVVENGGIINKIGTNQMAVCAKAQNKPFYVVAESFKFVRLFPLNQQDVPDKFKYKADTLKVAQTGQDLKEEHPWVDYTAPSLITLLFTDLGVLTPSAVSDELIKLYL
Work on B1 yielded a Kd of less than 1 nM.
